This note sets out measurements from patent publication US9958461B2, “Detection of protein to protein interactions” (THE GOVERNING COUNCIL OF THE UNIVERSITY OF TORONTO, priority 2013, dated 2018).

Test [1] deals with T1, EGFR-Wt (Homo sapiens, UniProt P00533).
T1 construct: with the advantage of testing full-length integral membrane proteins; (GGGGS)2 linker-Cub (human ubiquitin aa 35-76)-GAL4(1-147)-mNFkB(364-550) (C); expressed in transfected cells
The experiment in a line: MaMTH EGFR-interactor screen, lentiviral preys against EGFR-wildtype bait (interaction score). Conditions: MaMTH interaction score of prey with EGFR-Wt bait, mean. The test is classed as cell-based. The method, boiled down:
(§1)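 5×GAL4UAS-luciferase HEK293T reporter cells were lentivirally infected with preys (MOI ~0.3-0.4) and puromycin-selected ≥48 h. They were then transfected in triplicate with the EGFR bait, and luciferase was read 24 h later. Score is fold-change over averaged negative-control preys; >1 denotes interaction.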

For test [2], the system named is EGFR-Wt. Described as above. The test is classed as cell-based, human. Conditions: ratio of EGFR-Wt mean to EGFR-L858R mean interaction score. The method, boiled down: as §1
Test [3] concerns the target T2, EGFR-L858R (Homo sapiens, UniProt P00533, L858R).
T2 construct: with the advantage of testing full-length integral membrane proteins; (GGGGS)2 linker-Cub (human ubiquitin aa 35-76)-GAL4(1-147)-mNFkB(364-550) (C); expressed in transfected cells
The experiment in a line: MaMTH EGFR-interactor screen, lentiviral preys against EGFR-L858R bait (interaction score). It is filed as cell-based. Conditions: MaMTH interaction score of prey with EGFR-L858R bait. Put shortly:
as §1

B1: JUP (protein, UniProt P14923 1-745, looked up)
Junction plakoglobin: MEVMNLMEQPIKVTEWQQTYTYDSGIHSGANTCVPSVSSKGIMEEDEACGRQYTLKKTTTYTQGVPPSQGDLEYQMSTTARAKRVREAMCPGVSGEDSSLLLATQVEGQATNLQRLAEPSQLLKSAIVHLINYQDDAELATRALPELTKLLNDEDPVVVTKAAMIVNQLSKKEASRRALMGSPQLVAAVVRTMQNTSDLDTARCTTSILHNLSHHREGLLAIFKSGGIPALVRMLSSPVESVLFYAITTLHNLLLYQEGAKMAVRLADGLQKMVPLLNKNNPKFLAITTDCLQLLAYGNQESKLIILANGGPQALVQIMRNYSYEKLLWTTSRVLKVLSVCPSNKPAIVEAGGMQALGKHLTSNSPRLVQNCLWTLRNLSDVATKQEGLESVLKILVNQLSVDDVNVLTCATGTLSNLTCNNSKNKTLVTQNSGVEALIHAILRAGDKDDITEPAVCALRHLTSRHPEAEMAQNSVRLNYGIPAIVKLLNQPNQWPLVKATIGLIRNLALCPANHAPLQEAAVIPRLVQLLVKAHQDAQRHVAAGTQQPYTDGVRMEEIVEGCTGALHILARDPMNRMEIFRLNTIPLFVQLLYSSVENIQRVAAGVLCELAQDKEAADAIDAEGASAPLMELLHSRNEGTATYAAAVLFRISEDKNPDYRKRVSVELTNSLFKHDPAAWEAAQSMIPINEPYGDDMDATYRPMYSSDVPLDPLEMHMDMDGDYPIDTYSDGLRPPYPTADHMLA
Turning to B1, in test [1], the EGFR-Wt mean is 0.98. Further, in test [2], the Wt/L858R is 0.39. Also, the EGFR-L858R mean in test [3] was determined as 2.51.

B2: PTPN22 (protein, UniProt Q9Y2R2 1-807, looked up)
Tyrosine-protein phosphatase …: MDQREILQKFLDEAQSKKITKEEFANEFLKLKRQSTKYKADKTYPTTVAEKPKNIKKNRYKDILPYDYSRVELSLITSDEDSSYINANFIKGVYGPKAYIATQGPLSTTLLDFWRMIWEYSVLIIVMACMEYEMGKKKCERYWAEPGEMQLEFGPFSVSCEAEKRKSDYIIRTLKVKFNSETRTIYQFHYKNWPDHDVPSSIDPILELIWDVRCYQEDDSVPICIHCSAGCGRTGVICAIDYTWMLLKDGIIPENFSVFSLIREMRTQRPSLVQTQEQYELVYNAVLELFKRQMDVIRDKHSGTESQAKHCIPEKNHTLQADSYSPNLPKSTTKAAKMMNQQRTKMEIKESSSFDFRTSEISAKEELVLHPAKSSTSFDFLELNYSFDKNADTTMKWQTKAFPIVGEPLQKHQSLDLGSLLFEGCSNSKPVNAAGRYFNSKVPITRTKSTPFELIQQRETKEVDSKENFSYLESQPHDSCFVEMQAQKVMHVSSAELNYSLPYDSKHQIRNASNVKHHDSSALGVYSYIPLVENPYFSSWPPSGTSSKMSLDLPEKQDGTVFPSSLLPTSSTSLFSYYNSHDSLSLNSPTNISSLLNQESAVLATAPRIDDEIPPPLPVRTPESFIVVEEAGEFSPNVPKSLSSAVKVKIGTSLEWGGTSEPKKFDDSVILRPSKSVKLRSPKSELHQDRSSPPPPLPERTLESFFLADEDCMQAQSIETYSTSYPDTMENSTSSKQTLKTPGKSFTRSKSLKILRNMKKSICNSCPPNKPAESVQSNNSSSFLNFGFANRFSKPKGPRNPPPTWNI
In test [1], B2 came in with an EGFR-Wt mean of 2.99. The Wt/L858R in test [2] turned out to be 8.23. For the same molecule, in test [3], the EGFR-L858R mean is 0.36.

B3: PRKCZ (protein, UniProt Q05513 1-592, looked up)
Protein kinase C zeta type: MPSRTGPKMEGSGGRVRLKAHYGGDIFITSVDAATTFEELCEEVRDMCRLHQQHPLTLKWVDSEGDPCTVSSQMELEEAFRLARQCRDEGLIIHVFPSTPEQPGLPCPGEDKSIYRRGARRWRKLYRANGHLFQAKRFNRRAYCGQCSERIWGLARQGYRCINCKLLVHKRCHGLVPLTCRKHMDSVMPSQEPPVDDKNEDADLPSEETDGIAYISSSRKHDSIKDDSEDLKPVIDGMDGIKISQGLGLQDFDLIRVIGRGSYAKVLLVRLKKNDQIYAMKVVKKELVHDDEDIDWVQTEKHVFEQASSNPFLVGLHSCFQTTSRLFLVIEYVNGGDLMFHMQRQRKLPEEHARFYAAEICIALNFLHERGIIYRDLKLDNVLLDADGHIKLTDYGMCKEGLGPGDTTSTFCGTPNYIAPEILRGEEYGFSVDWWALGVLMFEMMAGRSPFDIITDNPDMNTEDYLFQVILEKPIRIPRFLSVKASHVLKGFLNKDPKERLGCRPQTGFSDIKSHAFFRSIDWDLLEKKQALPPFQPQITDDYGLDNFDTQFTSEPVQLTPDDEDAIKRIDQSEFEGFEYINPLLLSTEESV
With B3, the EGFR-Wt mean in test [1] was found to be 2.49. The Wt/L858R in test [2] is given as 2.79. In test [3], the EGFR-L858R mean was 0.89.

B4: ITK (protein, UniProt Q08881 1-620, looked up)
Tyrosine-protein kinase …: MNNFILLEEQLIKKSQQKRRTSPSNFKVRFFVLTKASLAYFEDRHGKKRTLKGSIELSRIKCVEIVKSDISIPCHYKYPFQVVHDNYLLYVFAPDRESRQRWVLALKEETRNNNSLVPKYHPNFWMDGKWRCCSQLEKLATGCAQYDPTKNASKKPLPPTPEDNRRPLWEPEETVVIALYDYQTNDPQELALRRNEEYCLLDSSEIHWWRVQDRNGHEGYVPSSYLVEKSPNNLETYEWYNKSISRDKAEKLLLDTGKEGAFMVRDSRTAGTYTVSVFTKAVVSENNPCIKHYHIKETNDNPKRYYVAEKYVFDSIPLLINYHQHNGGGLVTRLRYPVCFGRQKAPVTAGLRYGKWVIDPSELTFVQEIGSGQFGLVHLGYWLNKDKVAIKTIREGAMSEEDFIEEAEVMMKLSHPKLVQLYGVCLEQAPICLVFEFMEHGCLSDYLRTQRGLFAAETLLGMCLDVCEGMAYLEEACVIHRDLAARNCLVGENQVIKVSDFGMTRFVLDDQYTSSTGTKFPVKWASPEVFSFSRYSSKSDVWSFGVLMWEVFSEGKIPYENRSNSEVVEDISTGFRLYKPRLASTHVYQIMNHCWKERPEDRPAFSRLLRQLAEIAESGL
In test [1], B4 registered an EGFR-Wt mean of 2.21. The Wt/L858R in test [2] worked out at 2.35. The molecule further gave an EGFR-L858R mean in test [3] of 0.94.

B5: DOK1 (protein, UniProt Q99704 1-481, looked up)
Docking protein 1: MDGAVMEGPLFLQSQRFGTKRWRKTWAVLYPASPHGVARLEFFDHKGSSSGGGRGSSRRLDCKVIRLAECVSVAPVTVETPPEPGATAFRLDTAQRSHLLAADAPSSAAWVQTLCRNAFPKGSWTLAPTDNPPKLSALEMLENSLYSPTWEGSQFWVTVQRTEAAERCGLHGSYVLRVEAERLTLLTVGAQSQILEPLLSWPYTLLRRYGRDKVMFSFEAGRRCPSGPGTFTFQTAQGNDIFQAVETAIHRQKAQGKAGQGHDVLRADSHEGEVAEGKLPSPPGPQELLDSPPALYAEPLDSLRIAPCPSQDSLYSDPLDSTSAQAGEGVQRKKPLYWDLYEHAQQQLLKAKLTDPKEDPIYDEPEGLAPVPPQGLYDLPREPKDAWWCQARVKEEGYELPYNPATDDYAVPPPRSTKPLLAPKPQGPAFPEPGTATGSGIKSHNSALYSQVQKSGASGSWDCGLSRVGTDKTGVKSEGST
For the molecule B5, the EGFR-Wt mean in test [1] was found to be 5.17. For the same molecule, the Wt/L858R in test [2] stood at 0.39. The molecule further gave an EGFR-L858R mean in test [3] of 13.10.

B6: PTPN12 (protein, UniProt Q05209 1-780, looked up)
Tyrosine-protein phosphatase …: MEQVEILRKFIQRVQAMKSPDHNGEDNFARDFMRLRRLSTKYRTEKIYPTATGEKEENVKKNRYKDILPFDHSRVKLTLKTPSQDSDYINANFIKGVYGPKAYVATQGPLANTVIDFWRMIWEYNVVIIVMACREFEMGRKKCERYWPLYGEDPITFAPFKISCEDEQARTDYFIRTLLLEFQNESRRLYQFHYVNWPDHDVPSSFDSILDMISLMRKYQEHEDVPICIHCSAGCGRTGAICAIDYTWNLLKAGKIPEEFNVFNLIQEMRTQRHSAVQTKEQYELVHRAIAQLFEKQLQLYEIHGAQKIADGVNEINTENMVSSIEPEKQDSPPPKPPRTRSCLVEGDAKEEILQPPEPHPVPPILTPSPPSAFPTVTTVWQDNDRYHPKPVLHMVSSEQHSADLNRNYSKSTELPGKNESTIEQIDKKLERNLSFEIKKVPLQEGPKSFDGNTLLNRGHAIKIKSASPCIADKISKPQELSSDLNVGDTSQNSCVDCSVTQSNKVSVTPPEESQNSDTPPRPDRLPLDEKGHVTWSFHGPENAIPIPDLSEGNSSDINYQTRKTVSLTPSPTTQVETPDLVDHDNTSPLFRTPLSFTNPLHSDDSDSDERNSDGAVTQNKTNISTASATVSAATSTESISTRKVLPMSIARHNIAGTTHSGAEKDVDVSEDSPPPLPERTPESFVLASEHNTPVRSEWSELQSQERSEQKKSEGLITSENEKCDHPAGGIHYEMCIECPPTFSDKREQISENPTEATDIGFGNRCGKPKGPRDPPSEWT
The molecule B6 displayed an EGFR-Wt mean in test [1] of 2.64. In addition, in test [2], the Wt/L858R turned out to be 2.20. Besides, the EGFR-L858R mean in test [3] amounted to 1.20.

B7: SLA (protein, UniProt Q13239 2-276, looked up)
Src-like-adapter: GNSMKSTPAPAERPLPNPEGLDSDFLAVLSDYPSPDISPPIFRRGEKLRVISDEGGWWKAISLSTGRESYIPGICVARVYHGWLFEGLGRDKAEELLQLPDTKVGSFMIRESETKKGFYSLSVRHRQVKHYRIFRLPNNWYYISPRLTFQCLEDLVNHYSEVADGLCCVLTTPCLTQSTAAPAVRASSSPVTLRQKTVDWRRVSRLQEDPEGTENPLGVDESLFSYGLRESIASYLSLTSEDNTSFDRKKKSISLMYGGSKRKSSFFSSPPYFED
In test [1], B7 registered an EGFR-Wt mean of 2.78. In test [2], the Wt/L858R is listed as 2.40. In addition, the EGFR-L858R mean in test [3] came out at 1.16.

B8: STAP2 (protein, UniProt Q9UGK3 1-403, looked up)
Signal-transducing adaptor …: MASALRPPRVPKPKGVLPSHYYESFLEKKGPCDRDYKKFWAGLQGLTIYFYNSNRDFQHVEKLNLGAFEKLTDEIPWGSSRDPGTHFSLILRDQEIKFKVETLECREMWKGFILTVVELRVPTDLTLLPGHLYMMSEVLAKEEARRALETPSCFLKVSRLEAQLLLERYPECGNLLLRPSGDGADGVSVTTRQMHNGTHVVRHYKVKREGPKYVIDVEQPFSCTSLDAVVNYFVSHTKKALVPFLLDEDYEKVLGYVEADKENGENVWVAPSAPGPGPAPCTGGPKPLSPASSQDKLPPLPPLPNQEENYVTPIGDGPAVDYENQDVASSSWPVILKPKKLPKPPAKLPKPPVGPKPEPKVFNGGLGRKLPVSSAQPLFPTAGLADMTAELQKKLEKRRALEH
In the case of B8, the EGFR-Wt mean in test [1] is on record as 2.76. Besides, the Wt/L858R in test [2] amounted to 1.86. In addition, the EGFR-L858R mean in test [3] was 1.49.

B9: CAV2 (protein, UniProt P51636 1-162, looked up)
Caveolin-2: MGLETEKADVQLFMDDDSYSHHSGLEYADPEKFADSDQDRDPHRLNSHLKLGFEDVIAEPVTTHSFDKVWICSHALFEISKYVMYKFLTVFLAIPLAFIAGILFATLSCLHIWILMPFVKTCLMVLPSVQTIWKSVTDVIIAPLCTSVGRCFSSVSLQLSQD
In test [1], B9 yielded an EGFR-Wt mean of 2.57. In test [2], the Wt/L858R came out at 0.39. The molecule further yielded an EGFR-L858R mean in test [3] of 6.58.
